According to publication doi:10.1101/2021.06.02.446795:

Molecular target: HMPV nucleoprotein N (strain CAN97-83), full-length, N-RNA rings (human metapneumovirus (strain CAN97-83))
Test: SEC

## HMPV nucleoprotein N (strain CAN97-83), full-length, N-RNA rings (natural protein)
  stoichiometry N: 10
